Measured values reported in publication PMC13155533, “The secreted protein PCYOX1L controls the surface expression of acid-sensing ion channel 1a” (Science Advances, 2025).

B1: rat ASIC2a-GFP (natural protein, UniProt Q62962-1 1-512, looked up)
chain: MDLKESPSEGSLQPSSIQIFANTSTLHGIRHIFVYGPLTIRRVLWAVAFVGSLGLLLVESSERVSYYFSYQHVTKVDEVVAQSLVFPAVTLCNLNGFRFSRLTTNDLYHAGELLALLDVNLQIPDPHLADPTVLEALRQKANFKHYKPKQFSMLEFLHRVGHDLKDMMLYCKFKGQECGHQDFTTVFTKYGKCYMFNSGEDGKPLLTTVKGGTGNGLEIMLDIQQDEYLPIWGETEETTFEAGVKVQIHSQSEPPFIQELGFGVAPGFQTFVATQEQRLTYLPPPWGECRSSEMGLDFFPVYSITACRIDCETRYIVENCNCRMVHMPGDAPFCTPEQHKECAEPALGLLAEKDSNYCLCRTPCNLTRYNKELSMVKIPSKTSAKYLEKKFNKSEKYISENILVLDIFFEALNYETIEQKKAYEVAALLGDIGGQMGLFIGASLLTILELFDYIYELIKEKLLDLLGKEEEEGSHDENMSTCDTMPNHSETISHTVNVPLQTALGTLEEIAC
notes: ASIC2a, rat, in pEGFP-N1; In the functional row the untagged rat ASIC2a (pcDNA3.1) was used; source: HEK cells, transfected, in digitonin lysate
B2: rat ASIC1a-GFP (natural protein, UniProt P55926-1 1-526, looked up)
chain: MELKTEEEEVGGVQPVSIQAFASSSTLHGLAHIFSYERLSLKRALWALCFLGSLAVLLCVCTERVQYYFCYHHVTKLDEVAASQLTFPAVTLCNLNEFRFSQVSKNDLYHAGELLALLNNRYEIPDTQMADEKQLEILQDKANFRSFKPKPFNMREFYDRAGHDIRDMLLSCHFRGEACSAEDFKVVFTRYGKCYTFNSGQDGRPRLKTMKGGTGNGLEIMLDIQQDEYLPVWGETDETSFEAGIKVQIHSQDEPPFIDQLGFGVAPGFQTFVSCQEQRLIYLPSPWGTCNAVTMDSDFFDSYSITACRIDCETRYLVENCNCRMVHMPGDAPYCTPEQYKECADPALDFLVEKDQEYCVCEMPCNLTRYGKELSMVKIPSKASAKYLAKKFNKSEQYIGENILVLDIFFEVLNYETIEQKKAYEIAGLLGDIGGQMGLFIGASILTVLELFDYAYEVIKHRLCRRGKCQKEAKRSSADKGVALSLDDVKRHNPCESLRGHPAGMTYAANILPHHPARGTFEDFTC
notes: ASIC1a, rat, in pEGFP-N1; the methods say that rat ASIC1a was used for coexpression with PCYOX1L in HEK293 cells; The vector pEGFP-N1 would put GFP at the C-terminus; source: HEK cells, transfected, in digitonin lysate

Key:
[1] = target: the molecule itself; test: native gel or EMSA; high-resolution clear native PAGE (4 to 16%) of GFP-tagged proteins from 1% digitonin lysates of transfected HEK cells, GFP fluorescence scan; without coexpressed PCYOX1L
[2] = target: the molecule itself; test: native gel or EMSA; high-resolution clear native PAGE (4 to 16%) of GFP-tagged proteins from 1% digitonin lysates of transfected HEK cells, GFP fluorescence scan; ASIC1a-GFP coexpressed with PCYOX1L-GFP

Row | Protein | stoichiometry N [1] | stoichiometry N [2]
1 | B1 | 3 | –
2 | B2 | – | 3
